# Experimental data as given in patent US20120045773A1, “CELL ADHESION INHIBITOR AND APPLICATIONS THEREOF” (University of Miyazaki, priority 2009, published 2012).
# B1: shEVI1: short hairpin RNA (shRNA) having cleavage activity of mRNA of EVI1 gene; SEQ ID No: 7 and SEQ ID No: 8 (nucleic acid)
# chain 1: GAUCUCUCUAAGGCUGAACUAGCAGUUCAAGAGACUGCUAGUUCAGCCUUAGAUUUUUUG
# chain 2: AAUUCAAAAAAUCUAAGGCUGAACUAGCAGUCUCUUGAACUGCUAGUUCAGCCUUAGAGA
# B2: shITGB4: shRNA having an activity of cleaving mRNA of ITGB4 gene; SEQ ID No: 13 and SEQ ID No: 14 (nucleic acid)
# chain 1: GAUCUCCGAGUUGCGUGGGGUGUGUCUUCAAGAGAGACACACUCCGUGCAGCUCUUUUUG
# chain 2: AAUUCAAAAAGAGCUGCACGGAGUGUGUCUCUCUUGAAGACACACCCCACGCAACUCGGA
# Assays:
# AML1 cell line [1] = assay: Drug resistance assay by WST method with or without osteoblast cell in the medium; format: cell-based, human
# Protocol: Effect of the presence of osteoblast cell on the drug resistance of AML1 cell line derived from human acute myelocytic leukemia (AML) was examined.
# Specifically, by WST method, in which water-soluble formazan was produced, viability of AML1 cell line was evaluated under the presence of VP16 (5 μM), a kind of etoposide-based anticancer drug, between the cases of presence and absence of osteoblast cell in culture medium. It should be noted that AML1 cell line is fixed to medium plate through osteoblast cell when the osteoblast cell exists in the medium.
# In addition, effect of the presence of the osteoblast cell on the drug resistance of AML1 cell line was examined, when Ara-C, a kind of anticancer drug of […] was used in place of VP16 as the anticancer drug. Specifically, the drug resistance assay was carried out by WST method using the same procedures as the above-mentioned method excepting that Ara-C (1 μg/mL) was used in place of VP16 as the anticancer drug.
# Drug resistance assay by WST method was carried out by the same procedures as the above-mentioned Reference Example 5 (in the presence of Ara-C) using each of the above-established AML1 (shEVI1) cell and AML1 (shLuc) cell in place of AML1 cell line.
# HNT34 cell line [2] = assay: Cellular adhesiveness assay of HNT34 cell line; format: cell-based, human; conditions: HNT34(shEVI1) compared with HNT34(shLuc); FIG. 6
# Protocol: (§1) Specifically, 100 μL of 40 times-diluted growth factor reduced matrigel (produced by BD Biosciences) with RPMI1640/10% FCS was added to each well of a 96-well plate, incubated at 4° C. for 6 hours, and washed twice with PBS. The above-mentioned cell was added to each of the wells at 10000 cells/100 μL. After that, the cell was incubated at 37° C. for 2 hours and washed three times with PBS. After that, 90 μL of RPMI1640/10% FCS and 10 μL of Cell counting kit 8 (produced by DOJINDO Laboratories) were added to each well, incubated at 37° C. for 30 minutes and measured at wavelength of 450 nm by a spectrophotometer.
# The cellular adhesiveness was evaluated for the above-mentioned established HNT34(shEVI1) and HNT34(shLuc) by the same method as the above-mentioned Example 1-2.
# EVI1 gene [3] = assay: EVI1 gene expression by PCR and agarose gel electrophoresis in AML1 cells transduced with shEVI1; format: cell-based, human
# Text: (§2) EVI1 expression-inhibited AML1 cell line (hereinafter, also called “AML1 (shEVI1)”) was established by the transfection of shEVI1, which is a short hairpin RNA (shRNA) having cleavage activity of mRNA of EVI1 gene, into the AML1 cell line, which was originated from human acute myelocytic leukemia (AML).
# Specifically, at first, shEVI1 (sense strand: […] UUG (SEQ ID No: 7) and antisense strand: […] GAGA (SEQ ID No: 8), which had been disclosed in Oncogene, 2006 Jun. 15; 25 (25): 3565-75), were inserted into pSIREN-RetroQ-ZsGreen vector of RNAi-Ready pSIREN-RetroQ-ZsGreen (produced by Clonetech Laboratories, Inc.) at BamH1-EcoR1 site to prepare a shEVI1 retrovector. […] It should be noted that as a control cell, the cell (hereinafter, also called “AML1 (shLuc)”) was established by transfecting a control vector (shLuc) attached to RNAi-Ready pSIREN-RetroQ-ZsGreen (produced by Clonetech Laboratories, Inc.) by the same method.
# Each cell cultured steadily of the established above mentioned AML1(shEVI1) and AML1(shLuc) was recovered by centrifugation, the medium was removed, and 1 ml of Trizol™ (produced by Invitrogen Corp.) was added. […] The resultant RNA was dissolved in RNase-free water, the amount of RNA was measured by spectrophotometer at wavelength of 260 nm, and 1 μg of the RNA was transformed to cDNA with reverse transcriptase (superscript 3, produced by Invitrogen Corp.). […]
# AML1 cell = assay: Accumulation of AML1 cells in thighbone bone marrow of transplanted NOG mouse (FACS); format: in vivo; conditions: 6 million AML1(shEVI1) cells injected into NOG mouse, bone marrow recovered 1 month after, control AML1(shLuc) printed as (330), FIG. 25
# Protocol: The above-established AML1(shEVI1) cell was transplanted into NOG Mouse™, and accumulation of the AML1(shEVI1) cell into the murine thighbone was examined after the transplantation. Here, NOG mouse is a severe immunodeficient mouse suitable for the preparation of humanized model mouse that is available from the Central Institute for Experimental Animals.
# Specifically, 6 million of each of the AML1 (shLuc) cell and the AML1 (shEVI1) cell was injected into NOG mouse through venous artery, and bone marrow of the thighbone was recovered 1 month after. After that, a graph representing the fluorescence intensity in the horizontal axis was prepared by FACS, and analysis was made how frequently cells were distributed from low intensity (peak near to 0) to high fluorescence intensity.
# [4] = test system: various integrin families including ITGA6 gene and ITGB4 gene; assay: Expression of integrin family and VE cadherin genes by PCR and agarose gel electrophoresis in AML1 cells transduced with shEVI1; format: cell-based, human
# Text: as §2
# Specifically, at first, shEVI1 (sense strand: […] UUG (SEQ ID No: 7) and antisense strand: […] GAGA (SEQ ID No: 8), which had been disclosed in Oncogene, 2006 Jun. 15; 25 (25): 3565-75), were inserted into pSIREN-RetroQ-ZsGreen vector of RNAi-Ready pSIREN-RetroQ-ZsGreen (produced by Clonetech Laboratories, Inc.) at BamH1-EcoR1 site to prepare a shEVI1 retrovector. After that, 10 μg of the shEVI1 retrovector and 10 μg of p10A1 packaging vector (produced by Clonetech Laboratories, Inc.) were transduced to 293T cell using Hylimax liposome reagent (produced by DOJINDO Laboratories) to prepare a retrovirus containing shEVI1. After that, AML1 (shEVI1) was established by infecting the obtained retrovirus into 10^5 of AML1 cells. It should be noted that as a control cell, the cell (hereinafter, also called “AML1 (shLuc)”) was established by transfecting a control vector (shLuc) attached to RNAi-Ready pSIREN-RetroQ-ZsGreen (produced by Clonetech Laboratories, Inc.) by the same method.
# Each cell cultured steadily of the established above mentioned AML1(shEVI1) and AML1(shLuc) was recovered by centrifugation, the medium was removed, and 1 ml of Trizol™ (produced by Invitrogen Corp.) was added. After that, 500 μL of chloroform was added, separated by centrifugation at 15000 rpm for 15 minutes, the upper layer was transferred to another tube, 500 μL of 2-propanol was added, separated by centrifugation at 15000 rpm for 10 minutes, and washed with 80% ethanol. The resultant RNA was dissolved in RNase-free water, the amount of RNA was measured by spectrophotometer at wavelength of 260 nm, and 1 μg of the RNA was transformed to cDNA with reverse transcriptase (superscript 3, produced by Invitrogen Corp.).
# Using each of the resultant cDNA as a template, the cDNA was amplified by PCR method, and expression level of the genes was confirmed by agarose gel electrophoresis. Specifically, TaKaRa Extaq (produced by TaKaRaBio Inc.) was used as the polymerase, and PCR Thermal Cycler DICE (produced by TaKaRa Bio Inc.) was used as the PCR equipment. In addition, each cDNA was corrected by β-actin before the amplification by PCR. Base sequences of the primers used in the PCR were as follows;
# The ones disclosed in Journal of Biomedical Science (2005)12:803-813.
# HNT34 cell line [5] = assay: Cellular proliferative ability assay of HNT34 cell line (Cell counting kit 8); format: cell-based, human; conditions: HNT34(shEVI1) vs HNT34(shLuc) control cell line; FIG. 7
# Protocol: Cellular proliferative ability was evaluated for the above-mentioned established HNT34(shEVI1) and HNT34(shLuc).
# Specifically, cells diluted with RPMI1640/10% FCS were added to each well of a 96-well plate at 1000 cells/100 μL. After that, the cell suspension was incubated at 37° C. for an appropriate time, each 10 μL of Cell counting kit 8 (produced by DOJINDO Laboratories) was added, incubated at 37° C. for 30 minutes, and measurement was carried out at wavelength of 450 nm using a spectrophotometer.
# [6] = test system: genes of various integrin families; assay: Expression of integrin family genes by PCR in HNT34 cell line transfected with shEVI1; format: cell-based, human; conditions: HNT34(shEVI1) vs HNT34(shLuc); transfection with Nucleofector; FIG. 5
# Text: (§3) EVI1 expression-inhibited HNT34 cell line (hereinafter, also called “HNT34(shEVI1)”) was established by the transfection of shEVI1, which was used in the above-mentioned Example 1-1, using Nucleofector (produced by Amaxa Biosystems), a gene transfection system, into HNT34 cell line derived from human. In the same way, the cell line transfected with shLuc (hereinafter, also called “HNT34 (shLuc)”) was established. For these cell lines, expression of EVI1 gene and genes of various integrin families were confirmed by the same method as in the Example 1.
# EVI1 gene [7] = assay: EVI1 gene expression by PCR in HNT34 cell line transfected with shEVI1; format: cell-based, human; conditions: HNT34(shEVI1) vs HNT34(shLuc); transfection with Nucleofector; FIG. 5
# Text: as §3
# ITGB4 gene = ITGB4 gene expression by PCR in AML1 cell line transfected with shITGB4; format: cell-based, human; conditions: AML1(shITGB4) compared with AML1(shLuc); FIG. 9
# Text: ITGB4 expression-inhibited AML1 cell line (hereinafter also called “AML1(shITGB4)”) was established by the transfection of shRNA having an activity of cleaving mRNA of ITGB4 gene (hereinafter also called “shITGB4”) into AML1 cell line by the same method as the above-mentioned Example 2-1. It should be noted that the base sequences of the used shITGB4 were as follows.
# Further, expression of ITGB4 gene in AML1 (shITGB4) was confirmed by the same method as the above-mentioned Example 1-1. As a result, as shown in the results of PCR agarose gel electrophoresis in FIG. 9, expression of ITGB4 gene was suppressed in AML1(shITGB4) compared with AML1(shLuc).
# AML1 cell line [8] = assay: Cellular adhesiveness assay of AML1 cell line on matrigel-coated 96-well plate (Cell counting kit 8); format: cell-based, human; conditions: AML1(shITGB4) relative to AML1(shLuc); FIG. 8
# Protocol: Cellular adhesiveness was evaluated for the above-established AML1(shEVI1) (triplicate) and AML1(shLuc).
# as §1
# Cellular adhesiveness was evaluated for the established above-mentioned AML1(shITGB4) and AML1(shLuc) by the same method as the above-mentioned Example 1-2.
# [9] = AML1(shEVI1) compared with AML1(shLuc), FIG. 1
# [10] = triplicated experiment for AML1(shEVI1), AML1 cell not administered with shLuc or shEVI1 added as a control, FIG. 2
molecule,measurement,setting,value
Nc1ccn([C@@H]2O[C@H](CO)[C@@H](O)[C@@H]2O)c(=O)n1 [Ara-C],"viability of AML1 cell line in the presence of the drug, osteoblast cell in the medium compared with none","AML1 cell line [1]; Ara-C (1 μg/mL), FIG. 19",increase significantly
COc1cc([C@@H]2c3cc4c(cc3[C@@H](O[C@@H]3O[C@@H]5CO[C@@H](C)O[C@H]5[C@H](O)[C@H]3O)[C@H]3COC(=O)[C@H]23)OCO4)cc(OC)c1O [VP16],"viability of AML1 cell line in the presence of the drug, osteoblast cell in the medium compared with none","AML1 cell line [1]; VP16 (5 μM), FIG. 18",increase significantly
B1,decrease of cellular adhesiveness (ratio of the number of adhered cells to the number of total cells),HNT34 cell line [2],about 76%
same,EVI1 gene expression,EVI1 gene [3]; [9],inhibited
same,EVI1 gene expression,EVI1 gene [3]; [10],inhibition
same,abundance rate of transplanted cells in bone marrow of the thighbone,AML1 cell,9.5%
same,expression of VE cadoherin gene,[4]; [9],inhibited
same,gene expressions of various integrin families including ITGA6 gene and ITGB4 gene,[4]; [9],inhibition
same,expression of VE cadherin genes,[4]; [10],inhibition
same,expression of various integrin families,[4]; [10],inhibition
same,cellular proliferation ability,HNT34 cell line [5],no significant difference
same,expression of genes of various integrin families,[6],inhibited
same,drug resistance to Ara-C gained by the existence of osteoblast,"AML1 cell line [1]; AML1(shEVI1) vs AML1(shLuc), in the presence of Ara-C, FIG. 20",disappeared
same,expression of the EVI1 gene,EVI1 gene [7],inhibited
B2,expression of ITGB4 gene,ITGB4 gene,suppressed
same,cellular adhesiveness (ratio of the number of adhered cells to the number of total cells),AML1 cell line [8],decrease nearly to zero
